Test results as given in EP4484444A1.

Target: CPIII-Long (model substrate derived from procollagen III)
Test: cell-based or functional assay

enhancement factor of CPIII-Long cleavage by BMP-1 with 4 equivalents: > 3
enhancement factor of CPIII-Long processing by BMP-1: 1.7
Substance: human PCPE-1 fused to a C-terminal 8His tag (from UniProt Q15113 26-449)
